Laboratory results from the supplement of paper PMC10567573.
± gives the standard deviation.

Test: protein stability index of a GFP-peptide fusion (GPS, HEK-293T) (PSI 1-6); higher = more stable
Settings: c terminus: a fixed tail appended
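Also: 24-mer peptide tiles fused after GFP, lentivirally expressed, FACS-sorted into six equal bins by GFP/DsRed ratio, decoded by Illumina sequencing, PSI is the read-weighted mean bin number.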

Sequence	protein stability index (treatment: DMSO)	protein stability index (treatment: MLN4924 1 uM, 8 h)
SDSESKPDQEAEPQEAAGAQGRAG [EPB41L3]	5.54 ± 0.37	5.63 ± 0.22
RVRRFQVVEVTKGILEHVDSASPV [M1AP]	3.36 ± 0.2	3.37 ± 0.17
NWIVPGKFLAFSGPHPKSKIENGY [CDC14A]	2.32 ± 0.36	2.61 ± 0.48
LLQLSDACRFQEDQEMARDLVERA [TCF25]	3.64 ± 0.34	3.77 ± 0.52
LTRQLVSCSSDGGIAVWNMDVSRE [WDFY1]	2.96 ± 0.32	3.08 ± 0.2
GVRSREDAQGSEMVTCKSEFYHDE [GAN]	5.22 ± 0.12	5.08 ± 0.47
SRILKKTVYNEMDKNRCELLSFLL [EDNRA]	2.14 ± 0.67	1.96 ± 0.36
SQLSMKASLENSLEETKGRYCMQL [KRT16]	3.44 ± 0.18	3.61 ± 0.31
NGPLGPSEASIASNLQAMSTQMFQ [SMG5]	3.93 ± 0.18	3.95 ± 0.074
GRKFLQKHLNASNPTEPATIIFTA [TOR1AIP2]	2.35 ± 0.36	2.13 ± 0.32
QDDLTVVLNEEGICTQKCALNWTD [VPS39]	4.04 ± 0.49	4 ± 0.67
PAPLLVLCPSRAELDRWLYHLEKQ [PLEKHN1]	2.62 ± 0.11	2.17 ± 0.29
NDTNSFTVDCEPSDLFRLQEYNIP [CDS2]	3.65 ± 0.16	3.74 ± 0.21
YSKTFQRSNVDFLETPELTSTMLV [NECAB1]	2.18 ± 0.37	2.39 ± 0.35
PDKESMYYPRVQHYRELLDSLPMD [GDAP1]	3.38 ± 0.23	3.48 ± 0.35
LNEKRTFFHLSALKGYLYAVGGRN [KLHL13]	2.49 ± 0.68	2.33 ± 0.46

Sequence	protein stability index (treatment: DMSO)	protein stability index (treatment: MLN4924 1 uM, 8 h)
AERLEVSVDGLTLSPDPEERPGAE [ACBD3]	5.29 ± 0.45	5.56 ± 0.3
TGHGVSRGPSPVVLGSQDALPIAT [FCHO1]	4.17 ± 0.14	4.14 ± 0.045
IPKPQSTGWFGGGFTSYLGFGDED [MIA2]	3.14 ± 0.16	3.53 ± 0.55
LIQDGNPMENLEKQLICPICLEMF [TRIM63]	2.87 ± 0.58	2.97 ± 0.54
AECFRIFDRNADGYIDPEELAEIF [TNNC2]	5.32 ± 0.21	5.09 ± 0.15
AFFKRTIQGNIEYSCPATNECEIT [ESRRG]	3.11 ± 0.25	3.23 ± 0.27
PDEGSDLFYDDYYEDGEVEEEADS [CDC34]	5.36 ± 0.32	5.66 ± 0.25
KPDDEVKETAHDLDVKSPPEPRSE [RIPK4]	5.63 ± 0.34	5.61 ± 0.37
VPFDIFTEEVKFYQLGEEALLKFR [KCNA4]	2.32 ± 0.36	2.54 ± 0.19
ILTFLRAGKLRLLREMCALSFQEE [KCNG1]	3.24 ± 0.69	2.19 ± 0.28
MLGFRPYRFYFYMWKFVSPLCMAV [SLC6A17]	2.27 ± 0.25	2.29 ± 0.68
GADKEILTTKGEMPVQLTSRREIR [ANKRD40]	4.83 ± 0.13	4.95 ± 0.19
FHGTRQYKFDPKTKRILTLQKANS [MMP1]	2.38 ± 0.5	2.6 ± 0.54
KLRAMKELSEAAEAQHGPHSAVAR [STX11]	4.51 ± 0.13	4.6 ± 0.17
YKCSDCGKTFKQSSNLGQHQRIHT [ZNF232]	4.22 ± 0.18	4.3 ± 0.45
PPHRRRLLFACSPPPASQPVVKAL [CDC25A]	2.64 ± 0.22	2.98 ± 0.1
